From publication PMC12000561

Key:
Experiment in all cases: EMSA
Conditions in all cases: EMSA: DNA mix 40 mM Tris pH 7.6, 2 mM EDTA, 200 mM NaCl (printed '200 M'), 20% glycerol, 0.2 mg/ml BSA, 2 mM DTT, 20 pM duplex, mixed 1:1 with enzyme in 20 mM …
[1] = test system: MUTYH N238S (MBP fusion) (Homo sapiens)
[2] = test system: MUTYH R241Q (MBP fusion) (Homo sapiens)
[3] = test system: MUTYH R309C (MBP fusion) (Homo sapiens)
[4] = test system: MUTYH V246F (MBP fusion) (Homo sapiens)
[5] = THF (abasic analog) opposite 8-oxoguanine
[6] = upper limit estimate, THF (abasic analog) opposite 8-oxoguanine
[7] = table unit header missing, 2'-fluoro-2'-deoxyadenosine opposite 8-oxoguanine

Substance | Kd [1, 5] [pM] | Kd [2, 5] [pM] | Kd [3, 6] [pM] | Kd [4, 6] [pM] | Kd [1, 7] [pM] | Kd [2, 7] [pM] | Kd [3, 7] [pM] | Kd [4, 7] [pM]
Duplex 2 THF:OG (product analog), 30 bp | 46 | 467 | < 10 | < 10 | – | – | – | –
Duplex 2 fA:OG (substrate analog), 30 bp | – | – | – | – | 124 | 629 | 246 | 50
